What was measured:
Dnmt3a-CD F162V = Dnmt3a-CD F162V (Mus musculus, UniProt O88508 608-908, F748V); test: fluorescence polarization; 100 uM AdoHcy; no plateau reached; Buffer A: 20 mM HEPES pH 7.5, 100 mM KCl, 1 mM EDTA, 1 mM DTT, 100 uM AdoHcy, 25 C; DNA 100 nM (Methods) or 10 nM (Figure 6 legend); Hill fit; conditions: protein: recombinant; tags: C-terminal His6; chain copies: 2; label: 5'-FAM on strand 1 via aminohexyl linker; blunt
Dnmt3a-CD R146H = Dnmt3a-CD R146H (Mus musculus, UniProt O88508 608-908, R732H); test: fluorescence polarization; 100 uM AdoHcy; Buffer A: 20 mM HEPES pH 7.5, 100 mM KCl, 1 mM EDTA, 1 mM DTT, 100 uM AdoHcy, 25 C; DNA 100 nM (Methods) or 10 nM (Figure 6 legend); Hill fit; conditions: protein: recombinant; tags: C-terminal His6; chain copies: 2; label: 5'-FAM on strand 1 via aminohexyl linker; blunt
Sequence of Dnmt3a-CD R146H (O88508 608-908 R732H): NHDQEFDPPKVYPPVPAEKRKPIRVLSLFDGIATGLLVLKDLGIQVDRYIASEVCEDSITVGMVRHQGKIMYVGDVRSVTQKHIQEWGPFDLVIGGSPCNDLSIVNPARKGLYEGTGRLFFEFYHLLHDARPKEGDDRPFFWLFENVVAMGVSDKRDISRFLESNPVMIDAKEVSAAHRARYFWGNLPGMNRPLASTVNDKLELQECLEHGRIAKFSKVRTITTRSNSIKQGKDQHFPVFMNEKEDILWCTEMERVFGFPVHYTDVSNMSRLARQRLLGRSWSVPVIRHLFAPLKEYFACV

Dnmt3a-CD WT = Dnmt3a-CD WT (Mus musculus, UniProt O88508 608-908); test: as above; conditions: protein: recombinant; tags: C-terminal His6 (Results); chain copies: 2; label: 5'-FAM on strand 1 via aminohexyl linker; blunt
Sequence of Dnmt3a-CD WT (O88508 608-908): as the sequence (O88508 608-908 R732H) above, with H125R counted along it

Dnmt3a-CD R45W = Dnmt3a-CD R45W (Mus musculus, UniProt O88508 608-908, R631W); test: as above; conditions: protein: recombinant; tags: C-terminal His6; chain copies: 2; label: 5'-FAM on strand 1 via aminohexyl linker; blunt
Sequence of Dnmt3a-CD R45W (O88508 608-908 R631W): as the sequence (O88508 608-908 R732H) above, with R24W, H125R counted along it

Dnmt3a-CD S124C = Dnmt3a-CD S124C (Mus musculus, UniProt O88508 608-908, S710C); test: as above; conditions: protein: recombinant; tags: C-terminal His6; chain copies: 2; label: 5'-FAM on strand 1 via aminohexyl linker; blunt
Sequence of Dnmt3a-CD S124C (O88508 608-908 S710C): as the sequence (O88508 608-908 R732H) above, with S103C, H125R counted along it

Sequence of Dnmt3a-CD F162V (O88508 608-908 F748V): as the sequence (O88508 608-908 R732H) above, with H125R, F141V counted along it

B1: fCG/CG (dsDNA)
DNA 1: CTGAATACTACTTGCGCTCTCTAACCTGAT
DNA 2: ATCAGGTTAGAGAGCGCAAGTAGTATTCAG
Kd (Dnmt3a-CD F162V): 0.232 ± 0.032 µM | binding result (Dnmt3a-CD R146H): no binding | Kd (Dnmt3a-CD WT): 0.077 ± 0.006 µM | binding result (Dnmt3a-CD R45W): no binding | Kd (Dnmt3a-CD S124C): 0.127 ± 0.044 µM

From paper PMC7022712, “Functional Analysis of DNMT3A DNA Methyltransferase Mutations Reported in Patients with Acute Myeloid Leukemia”
